A word on the Kd: it is the free concentration of one partner at which half of the binding sites on the other are occupied at equilibrium, for simple one-to-one binding.

These results are taken from US20220096649A1.

One experiment has as its target SIRP-α human v1 (human) (UniProt P78324). As to the kind of experiment: SPR, antibody on GLC chip, SIRP as analyte. For orientation: SPR reads the build-up and loss of mass on a sensor chip optically.
Experiment [1] addresses SIRP-α mouse BALBc (mouse (BALBc)) (UniProt P97797). As to the kind of experiment: SPR, antibody on GLC chip, SIRP as analyte.
Experiment [2] has as its target SIRP-α mouse NOD (mouse (NOD)) (UniProt P97797). As to the kind of experiment: SPR, antibody on GLC chip, SIRP as analyte.
The target is the same in experiment [3]. The experiment is described as follows: SPR, antibody on GLC chip, SIRP as analyte; Mouse NOD SIRP-α allele.
The target in experiment [4] is SIRP-α mouse BALBc (mouse (BALBc)) (UniProt P97797). The experiment is described as follows: SPR, antibody on GLC chip, SIRP as analyte; Mouse BALBc SIRP-α allele.

SIRP-α human v1 (human), sequence (P78324 31-149): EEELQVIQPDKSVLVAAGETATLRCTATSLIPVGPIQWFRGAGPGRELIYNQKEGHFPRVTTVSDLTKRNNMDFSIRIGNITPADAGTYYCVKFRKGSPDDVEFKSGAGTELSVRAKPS

B1: Anti-SIRP-α antibody 136, light chain Mut_Q38E, heavy chain Mut (antibody, V domains shown)
VH: EVQLVESGGGVVQPGRSLRLSCAASGFTFSSYDVNWVRQAPGKGLEWVSLISGSGEIIYYADSVKGRFTISRDNSKNTLYLQMNSLRAEDTAVYYCAKENNRYRFFDDWGQGTLVTVSS
VL: EIVLTQSPGTLSLSPGERATLSCRASQSVYTYLAWYQEKPGQAPRLLIYGASSRATGIPDRFSGSGSGTEFTLTISSLQSEDFAVYYCQQYYDRPPLTFGGGTKVEIK
Consider B1, for which the Kd in the experiment with SIRP-α human v1 (human) was 6.2 nM; in experiment [1], 3 nM; in experiment [2], 6 nM.

B2: Anti-SIRP-α antibody 136, light chain wt, heavy chain Mut (antibody, V domains shown)
VH: EVQLVESGGGVVQPGRSLRLSCAASGFTFSSYDVNWVRQAPGKGLEWVSLISGSGEIIYYADSVKGRFTISRDNSKNTLYLQMNSLRAEDTAVYYCAKENNRYRFFDDWGQGTLVTVSS
VL: ETVLTQSPGTLTLSPGERATLTCRASQSVYTYLAWYQEKPGQAPRLLIYGASSRATGIPDRFSGSGSGTEFTLTISSLQSEDFAVYYCQQYYDRPPLTFGGGTKVEIK
Consider B2, for which the figures for the Kd (with SIRP-α human v1 (human); in experiment [1]; in experiment [2]) were 0.56 nM, 0.42 nM and 0.68 nM, respectively.

B3: Anti-SIRP-α antibody 136, light chain Mut_S22T, heavy chain Mut (antibody, V domains shown)
VH: EVQLVESGGGVVQPGRSLRLSCAASGFTFSSYDVNWVRQAPGKGLEWVSLISGSGEIIYYADSVKGRFTISRDNSKNTLYLQMNSLRAEDTAVYYCAKENNRYRFFDDWGQGTLVTVSS
VL: EIVLTQSPGTLSLSPGERATLTCRASQSVYTYLAWYQQKPGQAPRLLIYGASSRATGIPDRFSGSGSGTEFTLTISSLQSEDFAVYYCQQYYDRPPLTFGGGTKVEIK
With B3, the Kd in the experiment with SIRP-α human v1 (human) is 5 nM; in experiment [1] it was 1.6 nM; in experiment [2], 2.4 nM.

B4: Anti-SIRP-α antibody 136, light chain Mut_I2T, heavy chain Mut_V34M (antibody, V domains shown)
VH: EVQLVESGGGVVQPGRSLRLSCAASGFTFSSYDMNWVRQAPGKGLEWVSLISGSGEIIYYADSVKGRFTISRDNSKNTLYLQMNSLRAEDTAVYYCAKENNRYRFFDDWGQGTLVTVSS
VL: ETVLTQSPGTLSLSPGERATLSCRASQSVYTYLAWYQQKPGQAPRLLIYGASSRATGIPDRFSGSGSGTEFTLTISSLQSEDFAVYYCQQYYDRPPLTFGGGTKVEIK
As for B4, the dissociation constant Kd in the experiment with SIRP-α human v1 (human) stood at 0.55 nM; in experiment [1] it was 0.36 nM; in experiment [2], 0.6 nM.

B5: Anti-SIRP-α antibody 136, light chain Mut, heavy chain Mut (antibody, V domains shown)
VH: EVQLVESGGGVVQPGRSLRLSCAASGFTFSSYDVNWVRQAPGKGLEWVSLISGSGEIIYYADSVKGRFTISRDNSKNTLYLQMNSLRAEDTAVYYCAKENNRYRFFDDWGQGTLVTVSS
VL: EIVLTQSPGTLSLSPGERATLSCRASQSVYTYLAWYQQKPGQAPRLLIYGASSRATGIPDRFSGSGSGTEFTLTISSLQSEDFAVYYCQQYYDRPPLTFGGGTKVEIK
For B5, the values for the dissociation constant Kd (in the experiment with SIRP-α human v1 (human); in experiment [1]; in experiment [2]) were 7.3 nM, 3.1 nM and 5.2 nM, respectively.

B6: Anti-SIRP-α antibody 136, light chain Mut_S12T, heavy chain Mut (antibody, V domains shown)
VH: EVQLVESGGGVVQPGRSLRLSCAASGFTFSSYDVNWVRQAPGKGLEWVSLISGSGEIIYYADSVKGRFTISRDNSKNTLYLQMNSLRAEDTAVYYCAKENNRYRFFDDWGQGTLVTVSS
VL: EIVLTQSPGTLTLSPGERATLSCRASQSVYTYLAWYQQKPGQAPRLLIYGASSRATGIPDRFSGSGSGTEFTLTISSLQSEDFAVYYCQQYYDRPPLTFGGGTKVEIK
For B6, the values for the Kd (in the experiment with SIRP-α human v1 (human); in experiment [1]; in experiment [2]) were 4.9 nM, 2.1 nM and 2.9 nM, respectively.

B7: Anti-SIRP-α antibody 136, light chain Mut_I2T, heavy chain Mut (antibody, V domains shown)
VH: EVQLVESGGGVVQPGRSLRLSCAASGFTFSSYDVNWVRQAPGKGLEWVSLISGSGEIIYYADSVKGRFTISRDNSKNTLYLQMNSLRAEDTAVYYCAKENNRYRFFDDWGQGTLVTVSS
VL: ETVLTQSPGTLSLSPGERATLSCRASQSVYTYLAWYQQKPGQAPRLLIYGASSRATGIPDRFSGSGSGTEFTLTISSLQSEDFAVYYCQQYYDRPPLTFGGGTKVEIK
In the case of B7, the Kd with SIRP-α human v1 (human) is 0.72 nM; in experiment [1] it was 0.42 nM; in experiment [2], 0.68 nM.

B8: Anti-SIRP-α antibody 119, light chain wt, heavy chain wt (antibody, V domains shown)
VH: EVQLLESGGGVVQPGGSLRLSCAASGFSFSNFAMTWVRQAPGEGLEWVSTIGSGDTYYADSVKGRFTISRDNSKNTLYLQMNSLRAEDTAVYYCAKDSTVSWSGDFFDYWGLGTLVTVSS
VL: EIVLTQSPATLSVSPGERATFSCRASQNVKNDLAWYQQRPGQAPRLLIYAARIRETGIPERFSGSGSGTEFTLTITSLQSEDFAVYYCQQYYDWPPFTFGGGTKVEIK
As to B8, in the experiment with SIRP-α human v1 (human), the Kd stood at 0.18 nM.

B9: Anti-SIRP-α antibody 135, light chain Mut, heavy chain wt (antibody, V domains shown)
VH: DVQLVESGGGVVRPGESLRLSCAASGFSFSIYAMSWVRQAPGEGLEWVSTIGADDTYYADSVKGRFTISRDNSKNTLYLQMNSLRAEDTAVYYCAKDSTVGWSGDFFDYWGLGTLVTVSS
VL: EIVLTQSPATLSVSPGERVTLSCRASQNVRSDIAWYQQKPGQAPRLLIYAASSRDTGIPARFSGSGSGTDFTLTISSLQSEDFGVYYCQQYYDWPPFTFGGGTKVEIK
Molecule B9 gave a Kd in the experiment with SIRP-α human v1 (human) of 0.15 nM.

B10: Anti-SIRP-α antibody 119, light chain Mut, heavy chain wt (antibody, V domains shown)
VH: EVQLLESGGGVVQPGGSLRLSCAASGFSFSNFAMTWVRQAPGEGLEWVSTIGSGDTYYADSVKGRFTISRDNSKNTLYLQMNSLRAEDTAVYYCAKDSTVSWSGDFFDYWGLGTLVTVSS
VL: EIVLTQSPATLSVSPGERATLSCRASQNVKNDLAWYQQKPGQAPRLLIYAARIRETGIPARFSGSGSGTEFTLTISSLQSEDFAVYYCQQYYDWPPFTFGGGTKVEIK
Molecule B10 displayed a dissociation constant Kd with SIRP-α human v1 (human) of 0.21 nM.

B11: Anti-SIRP-α antibody 135, light chain wt, heavy chain Mut (antibody, V domains shown)
VH: EVQLVESGGGVVQPGGSLRLSCAASGFSFSIYAVSWVRQAPGKGLEWVSTIGADDTYYADSVKGRFTISRDNSKNTLYLQMNSLRAEDTAVYYCAKDSTVGWSGDFFDYWGQGTLVTVSS
VL: EIVLTQSPATLSVSPGERVTFSCRASQNVRSDIAWYQQKPGQAPRLLIYAASSRDTGIPDRFSGSGSGTDFTLTISSLQSEDFGVYYCQQYYDWPPFTFGGGTKVEIK
B11: the dissociation constant (Kd) in the experiment with SIRP-α human v1 (human) stood at 0.18 nM.

B12: Anti-SIRP-α antibody 119, light chain wt, heavy chain Mut (antibody, V domains shown)
VH: EVQLLESGGGVVQPGGSLRLSCAASGFSFSNFAVTWVRQAPGKGLEWVSTIGSGDTYYADSVKGRFTISRDNSKNTLYLQMNSLRAEDTAVYYCAKDSTVSWSGDFFDYWGQGTLVTVSS
VL: EIVLTQSPATLSVSPGERATFSCRASQNVKNDLAWYQQRPGQAPRLLIYAARIRETGIPERFSGSGSGTEFTLTITSLQSEDFAVYYCQQYYDWPPFTFGGGTKVEIK
In the experiment with SIRP-α human v1 (human), B12 showed a Kd of 0.25 nM.

B13: Anti-SIRP-α antibody 119, light chain Mut, heavy chain Mut (antibody, V domains shown)
VH: EVQLLESGGGVVQPGGSLRLSCAASGFSFSNFAVTWVRQAPGKGLEWVSTIGSGDTYYADSVKGRFTISRDNSKNTLYLQMNSLRAEDTAVYYCAKDSTVSWSGDFFDYWGQGTLVTVSS
VL: EIVLTQSPATLSVSPGERATLSCRASQNVKNDLAWYQQKPGQAPRLLIYAARIRETGIPARFSGSGSGTEFTLTISSLQSEDFAVYYCQQYYDWPPFTFGGGTKVEIK
For the molecule B13, the Kd with SIRP-α human v1 (human) was determined as 0.32 nM.

B14: Anti-SIRP-α antibody 119, light chain Mut, heavy chain Mut_V34M (antibody, V domains shown)
VH: EVQLLESGGGVVQPGGSLRLSCAASGFSFSNFAMTWVRQAPGKGLEWVSTIGSGDTYYADSVKGRFTISRDNSKNTLYLQMNSLRAEDTAVYYCAKDSTVSWSGDFFDYWGQGTLVTVSS
VL: EIVLTQSPATLSVSPGERATLSCRASQNVKNDLAWYQQKPGQAPRLLIYAARIRETGIPARFSGSGSGTEFTLTISSLQSEDFAVYYCQQYYDWPPFTFGGGTKVEIK
Molecule B14 yielded a dissociation constant Kd in the experiment with SIRP-α human v1 (human) of 0.22 nM.

B15: Anti-SIRP-α antibody 135, light chain wt, heavy chain wt (antibody, V domains shown)
VH: DVQLVESGGGVVRPGESLRLSCAASGFSFSIYAMSWVRQAPGEGLEWVSTIGADDTYYADSVKGRFTISRDNSKNTLYLQMNSLRAEDTAVYYCAKDSTVGWSGDFFDYWGLGTLVTVSS
VL: EIVLTQSPATLSVSPGERVTFSCRASQNVRSDIAWYQQKPGQAPRLLIYAASSRDTGIPDRFSGSGSGTDFTLTISSLQSEDFGVYYCQQYYDWPPFTFGGGTKVEIK
The molecule B15 came in with a Kd in the experiment with SIRP-α human v1 (human) of 0.15 nM.

B16: Anti-SIRP-α antibody 135, light chain wt, heavy chain Mut_V34M (antibody, V domains shown)
VH: EVQLVESGGGVVQPGGSLRLSCAASGFSFSIYAMSWVRQAPGKGLEWVSTIGADDTYYADSVKGRFTISRDNSKNTLYLQMNSLRAEDTAVYYCAKDSTVGWSGDFFDYWGQGTLVTVSS
VL: EIVLTQSPATLSVSPGERVTFSCRASQNVRSDIAWYQQKPGQAPRLLIYAASSRDTGIPDRFSGSGSGTDFTLTISSLQSEDFGVYYCQQYYDWPPFTFGGGTKVEIK
In the case of B16, the Kd with SIRP-α human v1 (human) amounted to 0.15 nM.

B17: Anti-SIRP-α antibody 135, light chain Mut, heavy chain Mut (antibody, V domains shown)
VH: EVQLVESGGGVVQPGGSLRLSCAASGFSFSIYAVSWVRQAPGKGLEWVSTIGADDTYYADSVKGRFTISRDNSKNTLYLQMNSLRAEDTAVYYCAKDSTVGWSGDFFDYWGQGTLVTVSS
VL: EIVLTQSPATLSVSPGERVTLSCRASQNVRSDIAWYQQKPGQAPRLLIYAASSRDTGIPARFSGSGSGTDFTLTISSLQSEDFGVYYCQQYYDWPPFTFGGGTKVEIK
B17 came in with a Kd with SIRP-α human v1 (human) of 0.19 nM.

B18: Hum1/AB21_HC_Mutall (antibody, V domains shown)
VH: EVQLVESGGGVVQPGGSLRLSCAASGFTFSSNAMSWVRQAPGKGLEWVAGISAGGSDTYYPASVKGRFTISRDNSKNTLYLQMNSLRAEDTAVYYCARETWNHLFDYWGQGTLVTVSS
VL: SYELTQPPSVSVSPGQTARITCSGGSYSSYYYAWYQQKPGQAPVTLIYSDDKRPSNIPERFSGSSSGTTVTLTISGVQAEDEADYYCGGYDQSSYTNPFGGGTKLTVL
For B18, the Kd with SIRP-α human v1 (human) amounted to 0.0053 nM; in experiment [1], 7.9 nM; in experiment [2] it was 3.7 nM.

B19: Hum8/AB21_HC_Mutall (antibody, V domains shown)
VH: EVQLVESGGGVVQPGGSLRLSCAASGFTFSSNAMSWVRQAPGKGLEWVAGISAGGSDTYYPASVKGRFTISRDNSKNTLYLQMNSLRAEDTAVYYCARETWNHLFDYWGQGTLVTVSS
VL: SYELTQPPSVSVSPGQTARITCSGGAYSSYYYAWYQQKPGQAPVLVIYSDSKRPSGIPERFSGSSSGTTVTLTISGVQAEDEADYYCGGYDQSSYTNPFGGGTKLTVL
In the case of B19, the equilibrium dissociation constant (Kd) came out at 0.02 nM with SIRP-α human v1 (human), 28 nM in experiment [3] and 71 nM in experiment [4].
